Our source for the protein production values is a protein production outcome set (Wang et al. 2014).

This data set in a line: label from the status in PepcDB records.
With “MWSWDVECDTCAICRVQVMDACLRCQAENKQEDCVVVWGECNHSFHNCCMSLWVKQNNRCPLCQQDWVVQRIGK”, the protein production result is “not failed”.
With “MWTTRLVRSGLAALCAAVLVSSGCARFNDAQSQPFTTEPELRPQPSSTPPPPPPLPPVPFPKECPAPGVMQGCLESTSGLIMGIDSKTALVAERITGAVEEISISAEPKVKTVIPVDPAGDGGLMDIVLSPTYSQDRLMYAYISTPTDNRVVRVADGDIPKDILTGIPKGAAGNTGALIFTSPTTLVVMTGDAGDPALAADPQSLAGKVLRIEQPTTIDQTPPTTALSGIGSGGGLCIDPVDGSLYVADRTPTADRLQRITKNSEVSTVWTWPDKPGVAGCAAMDGTVLVNLINTKLTVAVRLAPSTGAVTGEPDVVRKDTHAHAWALRMSPDGNVWGATVNKTAGDAEKLDDVVFPLFPQGGGFPRNNDDKT”, the protein production result is on record as “failed”.
As for “MWTVLIINLLIAIVLTYFGLKERNENFSWFTASGAFIVFGLILLISTIPVFNDFNESSLLMFIGGILSILGIITLIIGLVTRAVKIVSLRDVAIAMEIAAVCVIYLIHNLDLSFINLFVPELSVIIGFLLFVFSRKKN”, the entry is “failed”; as for “MWWPGTVIGVGAGFAVASIPGALLGALLGQAIDRRLRLQGWEDMRERLGGRPALRDDELLFVMLGRLAKCDGRVAEQHIQQARQEMVRLDLAEAARLRAINAFNRGKAGKDRLGGHLRRISQQPHAAEGTLRACWRMVWADGKMGNKERELLLDWGQKLGMSRRQVQAMSLEYEPRKATGAESVPMTYAAALRLLAVDADTDTDKVKQAYRRLVSRHHPDKLAGTGASEAQVREATARTRELHQAYAMIRKRRGL”, “failed”.
Then “MYADYPYYADHYGGDIPEREYPSAERRAEAYIRKLTYVRGNIFAVENTAVKDAVCAVADVYYSCKKKQEAGTVKSESNDGYSVSYAVEQADGQTMEELIRKKAYEAASTYLLPTGWLSRKVGCCHADECDDYNL”, with “failed”; and “MYALISLEEDPSLLRYGYLSQDNVGDVRREVSKLCGELRPHALALVTSFGIPDSFLSPIAFNWVEANTWSSV”, with “failed”.
Then “MYAVPILNVYDFEVKKDKETSYKSATEDYVNKTMGVEQGVLGLFAATDERDKTTSYIVEIYNDYLAFSNHTKNQASKDFKAVIPQIAEGNLNSAEIDVQIAKDKKIEQNDNTFAVYTVIDVKPENDKEFAEIIKNIVETTFNEEGTLLVYLGTDRRNFNKWCLFEVYKDIDSYLNHRSAKYFKDYITQTKDMIAGKKRAELQVLKIENKGGLDYKKLY”, with “not failed”; and “MYDSRGVALHSELIHRWNHAFSILSIVAFPKKRLLFAGSQDSKILVFDLPTYNLIHTIRLGESQEETHTRSSVLCLTGSEDENFLFSGGADSLVRIWSIGEKTIRDDFLPVTEIATVYSVTDIGDIFSLAYLDSLETIVFGCQNASLLYVENLIQKIEKKSSDGVENINKLPHRRYDKFFDSLGPTGYSSNSLSQTSLTSLQENCGAAIIEVPSENIIKYAHYGFIYSINKLCPRFNQLLEKSSRTSGAEHIISSAGDGISKLWEFSKDKGQNTVKISLINDKIDNEDSVISQTIEFPFLYCGLTDGIIKIWDLNTQQIISTLKTKHESDVISISVYMDHVFAIDESGITHFYQNQVNHWNPQQGKILSSEIFSKSNAGSVSLLTGGSDGSLTLWDITSLLSAVPLSSNSPINASSTLQTTNLWAAYQSASLNNEEMLNTLRELISFQTVSQSKDTTNTLSLRRCAIYLQQLFLKFGATNSQLFPLPDGGNPVVFAYFQGNGKVSQVKGAKKKRILWYGHYDVISSGNTFNWNTDPFTLTCENGYLKGRGVSDNKGPLVSAIHSVAYLFQQGELVNDVVFLVEGSEEIGSASLKQVCEKYHDIIGKDIDWILLSNSTWVDQEHPCLNYGLRGVINAQIKVWSDKPDGHSGLNGGVYDEPMVNLVKIVSKLQNEQNEIMIPNFYSPLKDLTEEEYQRFQKITELANIDENTTVQDLITNWTKPSLSMTTVKFSGPGNITVIPKSVTMGISIRLVPEQSVEQVKRDLKAYLEESFKQLKSQNHLEIKVLNEAEGWLGDPTNHAYQILKDEITTAWDVEPLLVREGGSISCLRMLERIFDAPAVQIPCGQSTDNGHLANENLRIKNWSNLTEILSKVFNRL”, with “failed”.
As for “MYDWFSEMRKKDPVYYDGNIWQVFSYRYTKEVLNNFSKFSSDLTGYHERLEDLRNGKIRFDIPTRYTMLTSDPPLHDELRSMSADIFSPQKLQTLETFIRETTRSLLDSIDPREDDIVKKLAVPLPIIVISKILGLPIEDKEKFKEWSDLVAFRLGKPGEIFELGKKYLELIGYVKDHLNSGTEVVSRVVNSNLSDIEKLGYIILLLIAGNETTTNLISNSVIDFTRFNLWQRIREENLYLKAIEEALRYSPPVMRTVRKTKERVKLGDQTIEEGEYVRVWIASANRDEEVFHDGEKFIPDRNPNPHLSFGSGIHLCLGAPLARLEARIAIEEFSKRFRHIEILDTEKVPNEVLNGYKRLVVRLKSNE”, the protein production entry is given as “not failed”.
With “MYEAHFGLKQLPFTLTPNTSLFHGLSPHYEAIHTVLSAISMGEGIIKVTGEVGTGKTLVCRMLINELPSNVELLYLPNPVMNGHELRQALAKELWLDQSGDDIALIDRIHEKIIDLHAEGKLVVVFIDEAQALSDEALETLRLFGNLETDYKKLLQIVLFGQPELDERLQQHNLRQLRQRITFSALLRALNMNETVAYIRYRIAESGCENNPFSLVQMKAIWKATNGIPRLINQVCHKSLLIAFSEQVNNVPSKAVFNAIIDTADTVKPKHYFPTFWGWRVSLEHHHHHH”, the protein production entry was “not failed”.
“MYEEWKIVKREAPILGNDQLIENIWKMKREDSPYDIISLHKVNLIGGGNDAVLILPGTWSSGEQLVTISWNGVHYTIPDYRKSIVLYLARNGFNVYTIDYRTHYVPPFLKDRQLSFTANWGWSTWISDIKEVVSFIKRDSGQERIYLAGESFGGIAALNYSSLYWKNDIKGLILLDGGPTKHGIRPKFYTPEVNSIEEMEAKGIYVIPSRGGPNNPIWSYALANPDMPSPDPKYKSISDFLMDSLYVTGSANPYDYPYSKKEDMFPILASFDPYWPYRLSLERDLKFDYEGILVPTIAFVSERFGIQIFDSKILPSNSEIILLKGYGHLDVYTGENSEKDVNSVVLKWLSQQR”: the protein production result was “not failed”.
Then “MYESANVSDDADRTAFRRAEKKYKLYYEQDSKFSRKKKLPKPIDLSELLDFNLISQNFNNDGVLPDGIRVSKVDSSPVFCIDNRPGFYFIPDALSLKEQCKWIKESLTSFPQPPNRTNHNAIYGPIDDLFDSAKENKVLVQDDLTNNKWKFYEEVDIEKATRSSCKSVSASVLLRKLRWSTLGLQFDWSKRNYDVSLPHNNIPDALCQLAKTHAAIAMPDGEEFRPEGAIVNYFGIGDTLGGHLDDMEADWSKPIVSMSLGCKAIFLLGGKSKDDPPHAMYLRSGDVVLMAGEARECFHGNLLHFQLDGIPRIFTGEENADIGALESELSHESGHFFAEYIKTSRININIRQVF”, with “failed”; and “MYEVELKGYANDEIFEKVRETFEFMRKEIHEDIYYQHPCRDFSKTDEALRIRIKRFNGHNEVFLTYKGPKIDEKSKTRLEIEVEIQEDVDKYFELLDRLGFKEVLKVVKTREKYYVEKGVTITLDEVEGLGKFIEIETLVKEKDEIPEAVEKLEKILRELGVEKFERRSYLELLLEKRTELNI”, with “not failed”.
As for “MYFFVPTANSKINQMIFYLSSMNLDMIKEYILSFGIWAPITSFLLMVLQSVIAPIPAFLITLSNAAIFGWVKGAILSWSSAMAGAALCFYIARGLGRDAVEKLTSKFALKDIDGFFEKYGKHTILIARLLPFISFDLVSYAAGLTSMNFWSFFIATGIGQLPATIVYSYVGGMLTGGAQLLMSGLLILFALSIAIYVGKKVWNEKRGKNDK”, the entry is “failed”; as for “MYFLVTTLGVGFYLMKRMEKSEEDYLVAKRGLGAVPVGVTLALTVLGTPHILGVMESAYDIGLPAVWFSFAHAIMLAIVCLFTGRWARKLKVESVPEFLDVIFSNYWLRLMVGAVIAGAIFGICTLETQGLGVFVSILTGTSIEVGIVIGALIGILYVVLSGMKEVAWLNVLNAVILYIGIIAATFVLGSGLQNGWEGVNEFYISNDLAGKLNIFGSWEVFVGFALVNVLATVFFQGISQQGLHAALAAKSPDVLRKAMLIAVPVNGSFAVFAAVMGMAARATPEFAELGAKTATPAMIVSVLPTWASALLLATCLVAVLSSYAITLLAPTTIFVNDIYKAVLKPNASHEELLRLSRILTVLLAVAALIPAVSLPPILAAMMWLFSWLVPVFWFVIFGLFWKRSAPAAIITCLLVWVTINAWTMTPLPEVLGAPGWLHQVYLALIVTLVIGSLLNAVLPGKPGLFREKALAVRG”, “failed”.
